Data reported in patent US20230220080A1 (EPIMAB BIOTHERAPEUTICS, published 2023).
Each block holds one binder with its values, some of them ahead of it.

Tests used:
[1] = target: T1, c-Met, recombinant protein (human, UniProt P08581 25-932, limits assumed); assay: method not stated
T1 construct: also called human cMet; cMet-his

membrane EGFR on cells = membrane EGFR on cells (human, UniProt P00533 25-1210); assay: cell-based or functional assay
[2] = target: T1, c-Met, recombinant protein; assay: protein based binding; method not stated
[3] = target: T1, c-Met, recombinant protein; assay: SPR
Cyno cMet = Cyno cMet (cynomolgus, UniProt A0A2K5UM36 25-932); assay: protein based binding; method not stated
[4] = target: T2, CD22 on Raji and Daudi cells (human, UniProt P20273); assay: FACS on Raji cells, Alexa Fluor 488 anti-human IgG1, MFI; the curve reaches only about 130 MFI
T2 construct: on the cell surface of the human B cell lines Raji and Daudi; the sheet names only the cell lines (Raji, Daudi); CD22 is the target that the text gives for Epratuzumab

[5] = target: T3, CD3 on the cell surface of Jurkat cells (human, UniProt P07766 23-207); assay: FACS on Jurkat cells, Alexa Fluor 488 anti-human IgG1, MFI
T3 construct: whole, on cells; CD3 is a complex of several chains; also called CD3 (Jurkat)

IGF1R = IGF1R (UniProt P08069 31-932, limits assumed); assay: method not stated
hPD1-Fc = target: T4, hPD1-Fc (human, UniProt Q15116 25-167); assay: SPR
T4 construct: not shown: Fc part not described

[6] = target: T5, human EGFR, recombinant protein (human, UniProt P00533 25-645); assay: protein based binding; method not stated
T5 construct: also called hEGFR

Cyno EGFR = Cyno EGFR (cynomolgus, UniProt A0A2K5WK39 25-645); assay: protein based binding; method not stated
[7] = target: T6, human PD-L1, recombinant protein (human, UniProt Q9NZQ7 19-239, limits assumed); assay: SPR
T6 construct: also called rhPD-L1; PD-L1-his

[8] = target: T5, human EGFR, recombinant protein; assay: method not stated
[9] = target: T3, CD3 on the cell surface of Jurkat cells; assay: FACS on Jurkat cells, 100 nM
VEGF = VEGF (UniProt P15692-4 27-191, limits assumed); assay: method not stated
[10] = target: T5, human EGFR, recombinant protein; assay: method not stated; remark: listed apart in the source
[11] = target: T6, human PD-L1, recombinant protein; assay: method not stated
[12] = target: T6, human PD-L1, recombinant protein; assay: SPR Biacore X100, antigen immobilised on CM5, Ig injected

T1 sequence (P08581 25-932 limits assumed): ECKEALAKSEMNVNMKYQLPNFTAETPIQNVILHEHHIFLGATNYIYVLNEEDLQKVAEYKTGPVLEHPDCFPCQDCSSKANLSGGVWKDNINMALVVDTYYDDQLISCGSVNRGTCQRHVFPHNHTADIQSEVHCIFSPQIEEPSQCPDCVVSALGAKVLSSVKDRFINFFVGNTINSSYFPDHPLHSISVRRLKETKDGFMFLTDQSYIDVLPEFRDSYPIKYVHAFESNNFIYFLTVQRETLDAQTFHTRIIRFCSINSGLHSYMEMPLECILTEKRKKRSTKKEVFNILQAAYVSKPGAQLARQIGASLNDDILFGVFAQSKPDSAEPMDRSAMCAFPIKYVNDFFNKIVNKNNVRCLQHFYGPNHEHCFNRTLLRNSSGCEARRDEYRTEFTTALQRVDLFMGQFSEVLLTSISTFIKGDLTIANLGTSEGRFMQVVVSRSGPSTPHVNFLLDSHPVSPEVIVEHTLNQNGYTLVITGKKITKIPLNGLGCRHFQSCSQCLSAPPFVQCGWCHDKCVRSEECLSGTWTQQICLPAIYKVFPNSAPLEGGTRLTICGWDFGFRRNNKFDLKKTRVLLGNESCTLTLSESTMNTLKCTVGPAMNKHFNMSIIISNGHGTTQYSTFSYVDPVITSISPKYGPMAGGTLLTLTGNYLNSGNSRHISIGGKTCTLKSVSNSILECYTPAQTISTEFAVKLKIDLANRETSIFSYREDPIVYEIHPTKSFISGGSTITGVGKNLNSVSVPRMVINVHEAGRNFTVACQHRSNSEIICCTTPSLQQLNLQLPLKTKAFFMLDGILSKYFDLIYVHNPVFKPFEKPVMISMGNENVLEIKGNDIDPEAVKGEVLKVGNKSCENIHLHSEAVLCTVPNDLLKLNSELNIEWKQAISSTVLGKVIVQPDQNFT
T6 sequence (Q9NZQ7 19-239 limits assumed): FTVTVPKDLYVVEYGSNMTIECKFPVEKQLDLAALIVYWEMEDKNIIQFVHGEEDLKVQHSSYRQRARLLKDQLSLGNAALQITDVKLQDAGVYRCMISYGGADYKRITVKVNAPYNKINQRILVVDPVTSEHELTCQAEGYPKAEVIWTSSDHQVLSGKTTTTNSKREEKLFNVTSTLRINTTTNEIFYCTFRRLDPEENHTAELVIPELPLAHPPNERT
T4 sequence (Q15116 25-167): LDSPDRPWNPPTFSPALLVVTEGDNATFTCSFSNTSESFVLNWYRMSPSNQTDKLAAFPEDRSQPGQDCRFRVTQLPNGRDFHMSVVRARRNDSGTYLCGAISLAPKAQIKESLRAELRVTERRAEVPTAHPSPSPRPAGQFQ
Chain of VEGF (P15692 other isoform, or with tags, fused parts or gaps limits assumed): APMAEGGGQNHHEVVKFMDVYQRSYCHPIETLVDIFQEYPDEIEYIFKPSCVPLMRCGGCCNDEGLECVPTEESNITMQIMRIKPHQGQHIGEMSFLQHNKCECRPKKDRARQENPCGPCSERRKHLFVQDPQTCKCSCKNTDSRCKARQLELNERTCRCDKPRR
Chain of Cyno cMet (A0A2K5UM36 entry or part of it limits assumed): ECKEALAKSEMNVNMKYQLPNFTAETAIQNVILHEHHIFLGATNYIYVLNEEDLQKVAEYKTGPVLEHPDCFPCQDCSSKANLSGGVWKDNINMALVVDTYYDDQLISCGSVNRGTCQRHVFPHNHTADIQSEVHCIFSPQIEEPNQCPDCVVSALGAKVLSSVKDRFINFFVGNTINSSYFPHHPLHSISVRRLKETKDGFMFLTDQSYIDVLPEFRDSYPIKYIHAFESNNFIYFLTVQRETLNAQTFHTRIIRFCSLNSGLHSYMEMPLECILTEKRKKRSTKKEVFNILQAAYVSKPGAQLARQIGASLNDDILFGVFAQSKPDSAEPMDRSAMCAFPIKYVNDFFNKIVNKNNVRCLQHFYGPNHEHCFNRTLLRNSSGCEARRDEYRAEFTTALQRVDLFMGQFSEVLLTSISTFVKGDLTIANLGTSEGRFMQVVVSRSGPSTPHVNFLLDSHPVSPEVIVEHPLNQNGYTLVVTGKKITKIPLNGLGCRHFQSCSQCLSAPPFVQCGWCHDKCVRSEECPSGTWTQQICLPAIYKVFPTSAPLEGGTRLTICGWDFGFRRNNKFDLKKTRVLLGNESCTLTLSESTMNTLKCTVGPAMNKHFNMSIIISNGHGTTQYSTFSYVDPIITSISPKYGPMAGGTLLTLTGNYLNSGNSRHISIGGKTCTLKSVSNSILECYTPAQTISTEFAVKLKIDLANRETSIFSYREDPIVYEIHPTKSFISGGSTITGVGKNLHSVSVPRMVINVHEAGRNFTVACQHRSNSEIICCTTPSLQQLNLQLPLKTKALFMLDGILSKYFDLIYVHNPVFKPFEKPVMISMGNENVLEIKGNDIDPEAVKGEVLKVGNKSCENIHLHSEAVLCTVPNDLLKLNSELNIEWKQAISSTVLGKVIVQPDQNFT

B2: Epratuzumab (antibody, V domains shown)
VH: QVQLVQSGAEVKKPGSSVKVSCKASGYTFTSYWLHWVRQAPGQGLEWIGYINPRNDYTEYNQNFKDKATITADESTNTAYMELSSLRSEDTAFYFCARRDITTFYWGQGTTVTVSS
VL: DIQLTQSPSSLSASVGDRVTMSCKSSQSVLYSANHKNYLAWYQQKPGKAPKLLIYWASTRESGVPSRFSGSGSGTDFTFTISSLQPEDIATYYCHQYLSSWTFGGGTKLEIK
notes: also called CD22 antibody Epratuzumab
EC50 [4]: 13.2 nM

B4: FIT016a HER3 (Patritumab)/IGF1R (Figitumumab) (bispecific antibody, human IgG1, kappa)
chain 1: not shown
chain 2: QVQLQQWGAGLLKPSETLSLTCAVYGGSFSGYYWSWIRQPPGKGLEWIGEINHSGSTNYNPSLKSRVTISVETSKNQFSLKLSSVTAADTAVYYCARDKWTWYFDLWGRGTLVTVSSASTKGPSVFPLAPSSKSTSGGTAALGCLVKDYFPEPVTVSWNSGALTSGVHTFPAVLQSSGLYSLSSVVTVPSSSLGTQTYICNVNHKPSNTKVDKKVEPKSC
chain 3: DIQMTQFPSSLSASVGDRVTITCRASQGIRNDLGWYQQKPGKAPKRLIYAASRLHRGVPSRFSGSGSGTEFTLTISSLQPEDFATYYCLQHNSYPCSFGQGTKLEIKRTVAAPSVFIFPPSDEQLKSGTASVVCLLNNFYPREAKVQWKVDNALQSGNSQESVTEQDSKDSTYSLSSTLTLSKADYEKHKVYACEVTHQGLSSPVTKSFNRGEC
notes: leader left out
Kd (IGF1R): 2.72 nM

B6: FIT013a cMet (h1332 (13.3.2L-A91T,H-42K,S97T))/EGFR (panitumumab) (bispecific antibody, human IgG1, kappa)
chain 1: not shown
chain 2: QVQLVQSGAEVKKPGASVKVSCKASGYTFTSYGFSWVRQAPGQGLEWMGWISASNGNTYYAQKLQGRVTMTTDTSTSTAYMELRSLRSDDTAVYYCARVYADYADYWGQGTLVTVSSASTKGPSVFPLAPSSKSTSGGTAALGCLVKDYFPEPVTVSWNSGALTSGVHTFPAVLQSSGLYSLSSVVTVPSSSLGTQTYICNVNHKPSNTKVDKKVEPKSC
chain 3: not shown
notes: leader left out; also called FIT013a (c-met/EGFR)
EGFR Depletion (%) on H441 cell, FACS (membrane EGFR on cells): 65.9% | Kd [6]: 0.534 nM | Kd (Cyno EGFR): 0.577 nM

B8: FIT13a-Ig cMet (h1332)/EGFR (panitumumab) (bispecific antibody, human IgG1, kappa)
chain 1: not shown
chain 2: B6 chain 2
chain 3: not shown
notes: also called FIT-Ig13a
Kd [8]: 1.52 nM

B10: FIT017a DLL4 (demcizumab)/VEGF (bevcizumab) (bispecific antibody, human IgG1, kappa)
chain 1: not shown
chain 2: QVQLVQSGAEVKKPGASVKISCKASGYSFTAYYIHWVKQAPGQGLEWIGYISSYNGATNYNQKFKGRVTFTTDTSTSTAYMELRSLRSDDTAVYYCARDYDYDVGMDYWGQGTLVTVSSASTKGPSVFPLAPSSKSTSGGTAALGCLVKDYFPEPVTVSWNSGALTSGVHTFPAVLQSSGLYSLSSVVTVPSSSLGTQTYICNVNHKPSNTKVDKKVEPKSC
chain 3: not shown
notes: leader left out
Kd (VEGF): 0.0365 nM

B11: FIT019b-Ig EGFR (Panitumumab)/HER3 (patritumab) (bispecific antibody, human IgG1, kappa)
chain 1: not shown
chain 2: QVQLQESGPGLVKPSETLSLTCTVSGGSVSSGDYYWTWIRQSPGKGLEWIGHIYYSGNTNYNPSLKSRLTISIDTSKTQFSLKLSSVTAADTAIYYCVRDRVTGAFDIWGQGTMVTVSSASTKGPSVFPLAPSSKSTSGGTAALGCLVKDYFPEPVTVSWNSGALTSGVHTFPAVLQSSGLYSLSSVVTVPSSSLGTQTYICNVNHKPSNTKVDKKVEPKSC
chain 3: not shown
notes: leader left out
Kd [10]: 0.338 nM

B13: EGFR antibody Panitumumab (antibody, V domains shown)
VH: QVQLQESGPGLVKPSETLSLTCTVSGGSVSSGDYYWTWIRQSPGKGLEWIGHIYYSGNTNYNPSLKSRLTISIDTSKTQFSLKLSSVTAADTAIYYCVRDRVTGAFDIWGQGTMVTVSS
VL: DIQMTQSPSSLSASVGDRVTITCQASQDISNYLNWYQQKPGKAPKLLIYDASNLETGVPSRFSGSGSGTDFTFTISSLQPEDIATYFCQHFDHLPLAFGGGTKVEIK
notes: parental mAb
Kd (Cyno EGFR): 0.362 nM

Results, then the binder that gave them:

Kd [1]: 2.63 nM | EGFR Depletion (%) on H441 cell, FACS (membrane EGFR on cells): 0% | Kd [2]: 1.27 nM | Kd [3]: 2.19 nM | Kd (Cyno cMet): 4.53 nM
B1: cMet antibody h1332 (13.3.2L-A91T,H-42K,S97T) (antibody, V domains shown)
VH: QVQLVQSGAEVKKPGASVKVSCKASGYTFTSYGFSWVRQAPGQGLEWMGWISASNGNTYYAQKLQGRVTMTTDTSTSTAYMELRSLRSDDTAVYYCARVYADYADYWGQGTLVTVSS
VL: DIQMTQSPSSVSASVGDRVTITCRASQGINTWLAWYQQKPGKAPKLLIYAASSLKSGVPSRFSGSGSGTDFTLTISSLQPEDFATYYCQQANSFPLTFGGGTKVEIK
notes: parental mAb; also called mAb-h1332

binding result [5]: no binding (tested: about 130 nM)
B3: anti-CD20 mAb Ofatumumab (antibody, V domains shown)
VH: EVQLVESGGGLVQPGRSLRLSCAASGFTFNDYAMHWVRQAPGKGLEWVSTISWNSGSIGYADSVKGRFTISRDNAKKSLYLQMNSLRAEDTALYYCAKDIQYGNYYYGMDVWGQGTTVTVSS
VL: EIVLTQSPATLSLSPGERATLSCRASQSVSSYLAWYQQKPGQAPRLLIYDASNRATGIPARFSGSGSGTDFTLTISSLEPEDFAVYYCQQRSNWPITFGQGTRLEIK
notes: parental mAb

Kd (hPD1-Fc): 2.34 nM
B5: FIT022a HER3 (patritumab)/PD-1 (nivolumab) (bispecific antibody, human IgG1, kappa)
chain 1: not shown
chain 2: B4 chain 2
chain 3: not shown
notes: leader left out; also called FIT022a-Ig

Kd [7]: 0.731 nM | Kd [3]: 1.49 nM
B7: FIT023a cMet (h1332)/PD-L1 (1B12) (bispecific antibody, human IgG1, kappa)
chain 1: not shown
chain 2: B6 chain 2
chain 3: not shown
notes: leader left out; also called FIT023a-Ig

Binding Intensity by FACS (MFI) [9]: 211 MFI
B9: OKT3/Ofatumumab FIT8-Ig (bispecific antibody, human IgG1, kappa)
chain 1: not shown
chain 2: not shown
chain 3: not shown
notes: GGGGSGS linker

Binding Intensity by FACS (MFI) [9]: 159 MFI
B12: OKT3/Ofatumumab FIT7-Ig (bispecific antibody, human IgG1, kappa)
chain 1: not shown
chain 2: not shown
chain 3: not shown
notes: no linker; also called anti-CD3/CD20 FIT-Ig

Kd (IGF1R): 0.729 nM
B14: IGF-1R antibody Figitumumab (antibody, V domains shown)
VH: EVQLLESGGGLVQPGGSLRLSCTASGFTFSSYAMNWVRQAPGKGLEWVSAISGSGGTTFYADSVKGRFTISRDNSRTTLYLQMNSLRAEDTAVYYCAKDLGWSDSYYYYYGMDVWGQGTTVTVSS
VL: DIQMTQFPSSLSASVGDRVTITCRASQGIRNDLGWYQQKPGKAPKRLIYAASRLHRGVPSRFSGSGSGTEFTLTISSLQPEDFATYYCLQHNSYPCSFGQGTKLEIK
notes: parental mAb

Kd [11]: 9.08 nM | Kd [12]: 0.402 nM | Kd [7]: 0.708 nM
B15: PD-L1 antibody 1B12 (antibody, V domains shown)
VH: QVQLVQSGAEVKKPGSSVKVSCKTSGDTFSSYAISWVRQAPGQGLEWMGGIIPIFGRAHYAQKFQGRVTITADESTSTAYMELSSLRSEDTAVYFCARKFHFVSGSPFGMDVWGQGTTVTVSS
VL: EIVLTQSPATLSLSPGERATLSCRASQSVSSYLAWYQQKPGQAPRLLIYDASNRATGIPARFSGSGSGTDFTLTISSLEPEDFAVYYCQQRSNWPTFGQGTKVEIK
notes: parental mAb
